Test [1] concerns the target native human IL-13 (crude preparation from activated human cord blood Th2 cells) (human) (UniProt P35225). The test is described as follows: cell-based or functional assay.
The target in test [2] is cynomolgus monkey IL-13 (NHP IL-13), recombinant (cynomolgus monkey). In words: cell-based or functional assay.
Sequence of cynomolgus monkey IL-13 (NHP IL-13), recombinant (cynomolgus monkey) (Q5I6E4 other isoform, or with tags, fused parts or gaps): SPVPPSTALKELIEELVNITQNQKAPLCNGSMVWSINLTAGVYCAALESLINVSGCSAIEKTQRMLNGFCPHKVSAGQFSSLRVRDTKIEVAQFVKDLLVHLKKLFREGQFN

Sequence of native human IL-13 (crude preparation from activated human cord blood Th2 cells) (human) (P35225 other isoform, or with tags, fused parts or gaps, form in doubt): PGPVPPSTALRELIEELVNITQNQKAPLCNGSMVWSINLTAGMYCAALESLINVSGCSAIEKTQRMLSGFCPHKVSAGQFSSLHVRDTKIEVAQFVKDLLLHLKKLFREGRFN

B1: antibody with the murine heavy chain of MJ2-7 and a humanized light chain (antibody, part only; not given: humanized light chain, V domains shown, part only)
VH: EVQLQQSGAELVKPGASVKLSCTGSGFNIKDTYIHWVKQRPEQGLEWIGRIDPANDNIKYDPKFQGKATITADTSSNTAYLQLNSLTSEDTAVYYCARSEENWYDFFDYWGQGTTLTVSS
Consider B1, for which the IC50, STAT6 phosphorylation assay in test [1] came to 554 pM. In addition, in test [2], the IC50, CD23 expression assay was determined as 308 pM.

Values taken from patent US20060073148A1.
